Source: the RNAGym collection of RNA variant scans (doi:10.1073/pnas.2313332121)
This sample holds only a part of the variants without activity.

B1: TPR 5TU (parent)
chain: GGAUCUUCUCGAUCUAACAAAAAAGACAAAUCUGCCACAAAGCUUGAGAGCAUCUUCGGAUGCAGAGGCGGCAGCCUUCGGUGGCGCGAUAGCGCCAACGUUCUCAACUAUGACACGCAAAACGCGUGCUCCGUUGAAUGGAGUUUAUCAUG

Variants of: B1
Assay: polymerase ribozyme fitness, log enrichment relative to wild type (log ratio); higher = more active; in vitro selection for triplet polymerase activity
Summary of the method: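 Fitness compares each genotype's enrichment to that of the wild type on a logarithmic scale, averaging replicates with inverse-variance weights. The logarithm is base 2. Enrichment came from Illumina sequencing of input and output libraries after one triplicate round of in vitro selection, which included frozen incubation at −7 °C, of PCR-built, transcribed mutant libraries of each subunit of a heterodimeric triplet polymerase ribozyme. Only genotypes with ≥10 input reads and ≥1 read per output were kept.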

Variant | polymerase ribozyme fitness (log ratio)
GGAUCUUCUCGAUCUCACAAAGAAGACAAAUCUGCCACAAAGCUUGAGAGCAACUUCGGAUGCAGAGGCGGCAGCCUUCGGUGGCGCGAUAUCGCCAACGUUCUCAACUAUGACACGCAAAACGCGUGCUCCGUUGAAUGGAGUUUAUCAUG | -2.34
GGAUCUUCUCGAUCGAACAAAAAAGACAAAUCUGCCACAAAGCUUGAGAGCAUCUUCGGAUGCAGAGGCGGCAGCCUUCGGUGGCGCGAUAGCGCCAACGUUCUCAACUAUGACACGCAAAACGCGUGCUCCGUUGAAAGGAGUUUAUCAUG | ≤ -4.2
GGAUCUUCUCGAUCUCACAAAAAUGACAAAUCUGCCACAAAGCUUGAGAGCAUCUUCAGAUGCAGAGGCGGCAGCCUUCGGUGGCGCGAUAUCGCCAACGUUCUCAACUAUGACACGCAAAACGCGUGCUCCGUUGAAUGGAGUUUAUCAUG | -2.2
GGAUCUUCUCGAUCUCACAAUAAAGACAAAUCUGCCACAAAGCUUGAGAGCAUCUUCGGAUGCAGAGGCGGCAGCUUUCGGUGGCGCGAUAGCGCCAACGUUCUUAACUAUGACACGCAAAACGCGUGCUCCGUUGAAUGGAGUUUAUCAUG | -1.77
GGAUCUUCUCGAUCUCACUAAAAAGACAAAUCUGCCACAAAGCUUGAGAGCAUCUUGGGAUGCAGAGGCGGCUGCCUUCGGUGGCGCGAUUGCGCCAACGUUCUCAACUAUGACACGCAAAACGCGUGCUCCGUUGAAUAGAGUAUAUCAUG | ≤ -4.2
GGAUCUUCUCGAUCUCACAACAAAGACAAAUCUGCCACAAAGCUUGAGAGCAUCUUCGGAAGCAGAGGCGGCAGCCUUCGGUGGCGCGAUAGCGCCAACGUUCUCAACUAUGACACGCAAAACGCGUGCUCCGUUGAAUGGAGUUUAUCAUG | -1.52
GGAUCUUCUCGAUCUCACAUAAAAGACAAAUCUGCCACAUAGCUUGAGAGCAUUUUCUGCUGCAGAGGCGGCAGCCUUCGGUGGCGCGAUAGCGCCAACGUUCUCAACUAUGACACGCAAAACGCGUGCUCCGUUGAAUGGAGUUUAUCAUG | -4.15
GGAUCUUCUCGAUCUCACAACAAAGACAAAUCUGCCACAAAGCUUGAGCGCAUUUUCGGAUGCAGAGGCGGCAGCCUUCGGUGGCGCGAUAGCGCUAACGUUCUCAACUAUGACACGCAAAACGCGUGCUCCGUUGAAUGGAGUUUAUCAUG | -4.18
GGAUCUUCUCGAUCUCACAAACAAGACAAAUCUGCCACAAAGCUUGAGAGCAUUUUCGGAUGCAGAGGCGGCAGCCUUCGGUGGCGCGAUAGCGCCAACGUUCUCAACUAUGUCACGCAAAACGCGUGCUCCGUUGAAUGGAGUUUAUCAUG | -4.06
GGAUCUUCUCGAUCUCACAACAAAGACAAAUCUGCCACAAAGCUUGAGAACAUCUUCGGAUGCAGAGGCGGCAGCCUUCGGUGGUGCGAUAGCGCCAACGUUCUCAACUAUGACACGCAAAACGGGUGCUCCGUUGAAUGGAGUUUAUCAUG | -2.99
GGAUCUUCUCGAUCUCACAAAUAAGCCAAAUCUGCCACAAUGCUUGAGAGCGUCUUUCGAUGCAGAGUCGGCAGCCUUCGGUGGCGCGAUCGCGGCAACGUUCUCAACUAUGACACGCAAAACGCGUGCUCCGUUGAACAGAGUUUAUCAUG | ≤ -4.2
GGAUCUUCUCGAUCUCACAAAUAAGACAAAUCUGCCACAAAGCUUGAGAGCAUCUUCGGAUGCAGAGGCGGCAGCCUUCGGUGGCGCGAUAGCGCCUACGUUCUCAACUAUGAAACGCAAAACGCGUGCUCCGUGGAAUGGAGUUUAUCAUG | ≤ -4.2
GGAUCUUCUCGAUCUCACAAAAAAGACAAAUCUGCCACAAAGCUUGAGAGCAUCUUCGGAUGCAGAGGCGGCAGCCUUCGGUGGCGCGAUAGCGCCAACGUUCUCAACUAUGACACGCAAAACGCGUGCUCCGUUGAAUGGAGUUUAUCAUG | -1.01
GGAUCUUCUCGAUCUCACAAAAAAGGCAAAUCUGCCACAAAGCUUGAGAGCAUCUUCGGAUGCAGAGGCGGCAGCCUUCGGUGGCUCGAUAGCGCCAACGUUCUCAACUAUGACACGCAAAACGCGUGCUCCGUUGAAUGGAGUUUAUCAUG | ≤ -4.2
GGAUCUUCUCGAUCUCACAAAAAUGACAAAUCUGCCACAAAGCUUGAGAGCAUCUUUGGAUGCAGAGGCGGCAGCCUUCGGUGGCGCGAUAGCGCCAACGUUCUCAACUAUGACACGCAAAACGCGUGCUCCGUUGAAUGGAGUUUAUCAUG | -2.44
GGAUCUUCUCGAUCUCACAAACAAGACAAAUCUGCCACAAAGCUUGAGAGCAUCUUCGGAUGCAGAGGCGGCAGCCUUCGGGGGUGCGAUAGCGCCACCGUUCUCAACUAUGACACGCAAAACGCGUGCUCCGUUUAAUGGAGUUUAUCAUG | ≤ -4.2
GGAUCUUCUCGAUCUCACCAAAAAGACAAAUCUGCCACAAAGCUUGAGAGCAUCUUCGGAUGCAGAGGCGGCAGCCUUCGGUGCCGCGAUAGCGCUAACGUUCUCAACUAUGACACGCAAAACGCCUGCUCCGUUGAAUGGAGUUUAUCAUG | -3.42
GGAUCUUCUCGAUCUCACAAUAAAGACAAAUCUGCCACAAAGCUUGAGAGCAUCUUCGAAUGCAGAGGCGGCAGCCUUCGGUGGCGCGAUAGCACCAGCGUUCUCAACUAUGACACGCAAAACGCGUGCUCCGUUGAAUGGAGUUUAUCAUG | -2.66
GGAUCUUCUCGAUCGAACAAAAAAGACAAAUCUGCCACAAAGCUUGAGAGCAUCUUCGGAUGCAGAGGCGGCAGCCUUCGGUGGCGCGAUAGCGCCAACGUUCUCAACUAUGACACGCAAAACGCGUGCUCCGUUGAAUGGAGUUUAACAUG | -2.78
